We go through three molecules from publication PMC7907199, “Prokaryotic Argonaute from Archaeoglobus fulgidus interacts with DNA as a homodimer” (Scientific Reports, 2020).

Data set [1] addresses AfAgoΔ (dimerization mutant of AfAgo lacking residues 296–303) (Archaeoglobus fulgidus) (UniProt O28951).
A further data set addresses T1, WT AfAgo (Archaeoglobus fulgidus (ATCC 49558), UniProt O28951 1-427).
T1 sequence: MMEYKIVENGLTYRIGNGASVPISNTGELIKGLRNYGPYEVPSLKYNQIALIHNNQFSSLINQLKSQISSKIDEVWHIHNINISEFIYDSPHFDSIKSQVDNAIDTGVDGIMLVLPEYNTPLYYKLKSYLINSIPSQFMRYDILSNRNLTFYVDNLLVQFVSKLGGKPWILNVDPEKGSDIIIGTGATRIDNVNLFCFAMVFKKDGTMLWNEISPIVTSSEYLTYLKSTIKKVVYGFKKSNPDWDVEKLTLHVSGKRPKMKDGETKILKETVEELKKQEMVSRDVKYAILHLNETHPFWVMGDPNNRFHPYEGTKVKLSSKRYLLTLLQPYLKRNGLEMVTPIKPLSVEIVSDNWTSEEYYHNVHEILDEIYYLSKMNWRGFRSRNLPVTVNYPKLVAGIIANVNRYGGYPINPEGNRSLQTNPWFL
Briefly: SEC-MALS; 5 mM MgCl2; 5 uM protein monomer, 5 uM duplex; mostly 2:2 protein:DNA; SEC-MALS of complexes: 15 mM Tris-HCl pH 8.0, 150 mM NaCl, 5 mM MgCl2, 0.5 mM DTT, 0.04% NaN3; EMSA, AFM and smFRET buffers not in the material. Particulars: protein: recombinant; chain copies: 2; blunt; self-complementary, 2 copies of the strand.

Data set [2] has as its target T2, AfAgoΔ (dimerization mutant) (Archaeoglobus fulgidus (ATCC 49558), UniProt O28951 1-427, del296-303).
T2 sequence: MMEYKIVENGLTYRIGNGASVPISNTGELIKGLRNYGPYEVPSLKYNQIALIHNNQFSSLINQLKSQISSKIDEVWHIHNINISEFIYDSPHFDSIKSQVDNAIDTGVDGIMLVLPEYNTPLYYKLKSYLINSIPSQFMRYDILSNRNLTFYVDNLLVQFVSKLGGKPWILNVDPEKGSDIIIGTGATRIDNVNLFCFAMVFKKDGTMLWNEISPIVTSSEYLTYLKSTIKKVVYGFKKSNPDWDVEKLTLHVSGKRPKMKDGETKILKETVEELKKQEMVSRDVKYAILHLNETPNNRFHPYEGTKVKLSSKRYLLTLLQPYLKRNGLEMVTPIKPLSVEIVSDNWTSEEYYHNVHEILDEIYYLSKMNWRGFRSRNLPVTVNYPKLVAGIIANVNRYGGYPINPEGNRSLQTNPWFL
Briefly: SEC-MALS; 5 mM MgCl2; 5 uM protein monomer, 5 uM duplex; major peak 1:1 protein:DNA; SEC-MALS of complexes: 15 mM Tris-HCl pH 8.0, 150 mM NaCl, 5 mM MgCl2, 0.5 mM DTT, 0.04% NaN3; EMSA, AFM and smFRET buffers not in the material. The settings on record: protein: recombinant; blunt; self-complementary, 2 copies of the strand.

Data set [3] concerns the molecule itself. Description: cell-based or functional assay.
Data set [4] deals with the molecule itself. Description: SEC-MALS; apo proteins without nucleic acids; 1.0 mg/mL (20 µM monomer), 2.0 mL injected; HiLoad 16/60 Superdex 200; 100 mM Tris–HCl pH 8.0, 1000 mM NaCl, 0.04% NaN3; dimer to monomers.

Turning to “AfAgoΔ (dimerization mutant of AfAgo lacking residues 296–303) (from UniProt O28951 1-427) (natural protein)”, the AFM: DNA loops, % of protein–DNA complexes in data set [1] is 26%.

B1: MZ-1289 oligoduplex (dsDNA)
DNA 1: ATTGTACGTACAAT
DNA 2: ATTGTACGTACAAT
modifications: 5'-phosphate
For the molecule B1, the binding result (with WT AfAgo; in data set [2]) was “binds” throughout.

B2: WT AfAgo (prokaryotic Argonaute from Archaeoglobus fulgidus, full-length wild type) (natural protein, UniProt O28951 1-427, looked up)
chain: MMEYKIVENGLTYRIGNGASVPISNTGELIKGLRNYGPYEVPSLKYNQIALIHNNQFSSLINQLKSQISSKIDEVWHIHNINISEFIYDSPHFDSIKSQVDNAIDTGVDGIMLVLPEYNTPLYYKLKSYLINSIPSQFMRYDILSNRNLTFYVDNLLVQFVSKLGGKPWILNVDPEKGSDIIIGTGATRIDNVNLFCFAMVFKKDGTMLWNEISPIVTSSEYLTYLKSTIKKVVYGFKKSNPDWDVEKLTLHVSGKRPKMKDGETKILKETVEELKKQEMVSRDVKYAILHLNETHPFWVMGDPNNRFHPYEGTKVKLSSKRYLLTLLQPYLKRNGLEMVTPIKPLSVEIVSDNWTSEEYYHNVHEILDEIYYLSKMNWRGFRSRNLPVTVNYPKLVAGIIANVNRYGGYPINPEGNRSLQTNPWFL
notes: The printed theoretical Mw of the monomer in the assays (50.8 kDa) is 49.2 kDa plus the 1.63 kDa tag, so the tag was on the protein; In some assays the protein carried a 5'-phosphorylated DNA duplex (MZ-1289) or a long DNA fragment; also called apo-AfAgo; source: E. coli BL21(DE3), purified (Ni2+ HiTrap chelating, RNase A/T1 treatment, HiTrap Heparin, Superdex 200)
Regarding B2, the “smFRET in solution: DNA looping efficiency K (ratio of looped to unlooped dual-labelled 569 bp DNA) against WT AfAgo concentration; maximum at 2 nM, lower at higher concentrations” value in data set [3] came to 2.5. The “stoichiometry N” value in data set [4] is 2.
